In assay [1] the target is T1, purified recombinant extracellular domain of c‐Met (from Met1 to Thr932), c‐Met‐his (human, UniProt P08581 25-932).
T1 chain: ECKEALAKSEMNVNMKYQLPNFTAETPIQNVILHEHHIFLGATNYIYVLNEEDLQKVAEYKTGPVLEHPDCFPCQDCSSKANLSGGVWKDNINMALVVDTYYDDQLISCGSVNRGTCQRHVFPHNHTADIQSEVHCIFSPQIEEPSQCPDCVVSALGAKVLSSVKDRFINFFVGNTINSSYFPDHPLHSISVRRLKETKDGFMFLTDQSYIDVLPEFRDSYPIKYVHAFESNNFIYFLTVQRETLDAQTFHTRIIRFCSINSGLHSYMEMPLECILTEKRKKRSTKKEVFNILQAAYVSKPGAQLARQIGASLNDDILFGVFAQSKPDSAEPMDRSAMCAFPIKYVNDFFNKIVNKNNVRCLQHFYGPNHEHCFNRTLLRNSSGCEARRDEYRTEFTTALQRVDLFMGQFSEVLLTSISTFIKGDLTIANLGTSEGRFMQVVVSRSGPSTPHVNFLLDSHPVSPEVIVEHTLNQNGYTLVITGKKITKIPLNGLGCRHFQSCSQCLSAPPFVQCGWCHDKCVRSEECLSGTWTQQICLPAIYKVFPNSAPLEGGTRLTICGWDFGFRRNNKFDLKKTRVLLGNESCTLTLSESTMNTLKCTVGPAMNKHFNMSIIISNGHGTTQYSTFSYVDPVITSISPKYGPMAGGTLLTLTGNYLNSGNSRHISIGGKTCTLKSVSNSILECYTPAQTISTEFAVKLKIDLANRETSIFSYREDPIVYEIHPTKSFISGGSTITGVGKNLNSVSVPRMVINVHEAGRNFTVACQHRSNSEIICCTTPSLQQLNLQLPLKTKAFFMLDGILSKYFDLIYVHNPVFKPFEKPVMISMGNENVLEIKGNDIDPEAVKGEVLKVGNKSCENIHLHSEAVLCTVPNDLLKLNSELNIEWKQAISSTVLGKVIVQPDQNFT
As to the kind of experiment: SPR.

Assay [2] concerns the target T2, purified recombinant extracellular domain of c‐Met (from Met1 to Thr932), c‐Met‐his (human, UniProt P08581 25-932).
T2 construct: signal peptide in the construct; c-Met (hepatocyte growth factor receptor), extracellular domain, Met1 to Thr932; The limits and supplier are told for the SPR; source: bought: Sino Biological (Beijing, China)
As to the kind of experiment: SPR; Biacore T200; c‐Met‐his immobilised on CM5 chip (10 mM sodium acetate pH 4.5); B7‐H3‐his as analyte in serial doubling concentrations up to 100 µM; 30 µL/min, 25°C; 1:1 model, global fit. The note with it: both partners purified.

Results on one molecule are retold here after publication PMC12371199, “Identification of c‐Met on Tumor Cells as a Novel Receptor for B7‐H3 Entails Implications for Cancer Cell Stemness and Targeted Therapy” (MedComm, 2025).

B1: purified recombinant extracellular domain of B7‐H3 (from Gly27 to Thr461), B7‐H3‐his (domain or fragment, human, UniProt Q5ZPR3 27-461, looked up)
chain: GALEVQVPEDPVVALVGTDATLCCSFSPEPGFSLAQLNLIWQLTDTKQLVHSFAEGQDQGSAYANRTALFPDLLAQGNASLRLQRVRVADEGSFTCFVSIRDFGSAAVSLQVAAPYSKPSMTLEPNKDLRPGDTVTITCSSYQGYPEAEVFWQDGQGVPLTGNVTTSQMANEQGLFDVHSILRVVLGANGTYSCLVRNPVLQQDAHSSVTITPQRSPTGAVEVQVPEDPVVALVGTDATLRCSFSPEPGFSLAQLNLIWQLTDTKQLVHSFTEGRDQGSAYANRTALFPDLLAQGNASLRLQRVRVADEGSFTCFVSIRDFGSAAVSLQVAAPYSKPSMTLEPNKDLRPGDTVTITCSSYRGYPEAEVFWQDGQGVPLTGNVTTSQMANEQGLFDVHSVLRVVLGANGTYSCLVRNPVLQQDAHGSVTITGQPMT
notes: B7-H3 (CD276), human, extracellular domain, Gly27 to Thr461; The limits and supplier are told for the SPR; also called soluble recombinant B7‐H3; source: bought: BioIntron (Taizhou, China)
On to B1, for which the koff in assay [1] was determined as 0.000707 s⁻¹. Besides, in assay [2], the equilibrium dissociation constant (Kd) was found to be 1660 nM.

Broadly, the koff is the first-order rate constant of dissociation. For orientation: Kd means the free concentration of one partner at which half of the binding sites on the other are occupied at equilibrium, for simple one-to-one binding.
